Assay results reported in the supplement of paper PMC9233669.
Fewer inactive variants are shown than the library holds.

What was measured:
biotinyl-Met-oxazolone = assay: self-aminoacylation, catalytic enhancement (BMO) (fold over background); higher = more active; k-Seq, kA / k0A0; sequences stand for … in GGGAAUGGAUCCACAUCUACGAAUUC…UUCACUGCAGACUUGACGAAGCUG
Summary of the method: (§1)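 Mutagenized RNA pools with a 21-nt variable region (0.43 μM) reacted with each biotinyl-aminoacyl-oxazolone at 2–1250 μM. Reactions ran in 50 μL HEPES/NaCl/KCl/MgCl2/CaCl2 buffer with 5% acetonitrile, pH 6.9–7.0, for 90 minutes at room temperature. Streptavidin-captured RNA was quantified by triplicate qPCR and Illumina sequencing, and per-sequence fraction reacted was fit to a pseudo-first-order model with 1000 bootstraps. Catalytic enhancement is median kA divided by the uncatalyzed rate, the low-activity peak of a bimodal Gaussian fit.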

biotinyl-Leu-oxazolone = assay: self-aminoacylation, catalytic enhancement (BLO) (fold over background); higher = more active; k-Seq, kA / k0A0; sequences stand for … in GGGAAUGGAUCCACAUCUACGAAUUC…UUCACUGCAGACUUGACGAAGCUG
Summary of the method: as §1

biotinyl-Ile-oxazolone = assay: self-aminoacylation, catalytic enhancement (BIO) (fold over background); higher = more active; k-Seq, kA / k0A0; sequences stand for … in GGGAAUGGAUCCACAUCUACGAAUUC…UUCACUGCAGACUUGACGAAGCUG
Summary of the method: as §1

biotinyl-Val-oxazolone = assay: self-aminoacylation, catalytic enhancement (BVO) (fold over background); higher = more active; k-Seq, kA / k0A0; sequences stand for … in GGGAAUGGAUCCACAUCUACGAAUUC…UUCACUGCAGACUUGACGAAGCUG
Summary of the method: as §1

biotinyl-Phe-oxazolone = assay: self-aminoacylation, catalytic enhancement (BFO) (fold over background); higher = more active; k-Seq, kA / k0A0; sequences stand for … in GGGAAUGGAUCCACAUCUACGAAUUC…UUCACUGCAGACUUGACGAAGCUG
Summary of the method: as §1

biotinyl-Trp-oxazolone = assay: self-aminoacylation, catalytic enhancement (BWO) (fold over background); higher = more active; k-Seq, kA / k0A0; sequences stand for … in GGGAAUGGAUCCACAUCUACGAAUUC…UUCACUGCAGACUUGACGAAGCUG
Summary of the method: as §1

| Sequence | self-aminoacylation (biotinyl-Met-oxazolone) | self-aminoacylation (biotinyl-Leu-oxazolone) | self-aminoacylation (biotinyl-Ile-oxazolone) | self-aminoacylation (biotinyl-Val-oxazolone) | self-aminoacylation (biotinyl-Phe-oxazolone) | self-aminoacylation (biotinyl-Trp-oxazolone) |
| --- | --- | --- | --- | --- | --- | --- |
| AUUACCAUGGUCAUCGAGUGU [Fam2.1 aminoacylation ribozyme variant] | 4.53 | 4.6 | 2.55 | 2.78 | 4.69 | 6.03 |
| CUACUUCAACCAGUCGGUCUG [Fam1A.1 aminoacylation ribozyme variant] | 0.662 | 0.788 | 0.712 | 0.833 | 0.542 | 0.564 |
| GCAGACUUCAAGCAAUCGGUC [Fam1B.1 aminoacylation ribozyme variant] | 2.82 | 4.28 | 3.19 | 2.67 | 119 | 49.8 |
| CCACACUUCAAGGAUUCGGUC [Fam1B.1 aminoacylation ribozyme variant] | 1.83 | 2.02 | 1.85 | 2.02 | 0.958 | 1.96 |
| AUUUGCCUAGGUCAUCGGGUG [Fam2.2 aminoacylation ribozyme variant] | 28 | 38.3 | 16 | 14.1 | 195 | 24.6 |
| AAGUUUGCUAAUGGUCGCUAG [Fam3.1 aminoacylation ribozyme variant] | 0.963 | 0.908 | 0.829 | 0.975 | 0.714 | 0.845 |
| UAGUGUGCUAAUAGUCGCAAG [Fam3.1 aminoacylation ribozyme variant] | 1.88 | 1.21 | 1.83 | 1.76 | 2.94 | 2.19 |
| AGUUCCCUGGUCAUCGAGUGA [Fam2.1 aminoacylation ribozyme variant] | 7.95 | 9.8 | 4.54 | 5 | 43.9 | 10.9 |
| UUUCCCCUGGUCAUCGAGUGA [Fam2.1 aminoacylation ribozyme variant] | 6.12 | 5.44 | 3.26 | 3.87 | 39.1 | 7.7 |
| UUACUUCAAACUAUCGGUCUG [Fam1A.1 aminoacylation ribozyme variant] | 0.916 | 1.04 | 1.25 | 1.08 | 1.25 | 1.26 |
| CUACUACAAACACUCGGUCUG [Fam1A.1 aminoacylation ribozyme variant] | 0.856 | 0.902 | 1.08 | 1.03 | 0.434 | 0.703 |
| UAGUUUGCUAAUUGUCGCAAG [Fam3.1 aminoacylation ribozyme variant] | 1.29 | 1.39 | 1.25 | 1.17 | 1.62 | 1.51 |
| CCACACGUCAAGCAGUCGGUC [Fam1B.1 aminoacylation ribozyme variant] | 1.05 | 1.26 | 0.995 | 1.69 | 0.584 | 1.17 |
| UUUACCCUCGUCAUCGAGUGA [Fam2.1 aminoacylation ribozyme variant] | 3.25 | 2.68 | 2.46 | 2.35 | 10.2 | 4.02 |
| AUUGACCAAGGUCAUCGGGUG [Fam2.2 aminoacylation ribozyme variant] | 6.04 | 7.01 | 4.36 | 3.9 | 45.5 | 6.06 |
| AAGUUUGCUACCAGUCGCAAG [Fam3.1 aminoacylation ribozyme variant] | 1.47 | 0.891 | 1.12 | 0.912 | 0.754 | 0.552 |
| AAGUUUGCUAAUUGCCGCAAG [Fam3.1 aminoacylation ribozyme variant] | 1.47 | 1.35 | 1.87 | 1.44 | 1.02 | 2.73 |
| AUUCACCUAUGUUAUCGGGUG [Fam2.2 aminoacylation ribozyme variant] | 5.62 | 7.49 | 3.19 | 3.43 | 41.3 | 5.74 |
| CUACUUCAAAUAAUCGGUCGG [Fam1A.1 aminoacylation ribozyme variant] | 0.909 | 1.13 | 1.07 | 0.832 | 6.6 | 5.93 |
| AUUCCACUAGGUCAUCGGGUG [Fam2.2 aminoacylation ribozyme variant] | 9.49 | 14.2 | 6.56 | 6.23 | 77.2 | 8.98 |
| CUACCUCAAAGAAUCGGUCUG [Fam1A.1 aminoacylation ribozyme variant] | 1.15 | 0.749 | 1.07 | 1.07 | 1.97 | 1.53 |

| Sequence | self-aminoacylation (biotinyl-Met-oxazolone) | self-aminoacylation (biotinyl-Leu-oxazolone) | self-aminoacylation (biotinyl-Ile-oxazolone) | self-aminoacylation (biotinyl-Val-oxazolone) | self-aminoacylation (biotinyl-Phe-oxazolone) | self-aminoacylation (biotinyl-Trp-oxazolone) |
| --- | --- | --- | --- | --- | --- | --- |
| CUGCUUCAAACAAUCGGUCGG [Fam1A.1 aminoacylation ribozyme variant] | 2.05 | 3.72 | 1.48 | 1.71 | 183 | 59.6 |
| AUGACCCUGGUCAUCGAGUGA [Fam2.1 aminoacylation ribozyme variant] | 58.9 | 55.8 | 18.6 | 19.3 | 451 | 51.6 |
| AAGUUUGCAAACAGUCGCAAG [Fam3.1 aminoacylation ribozyme variant] | 0.798 | 0.93 | 0.775 | 0.735 | 1.47 | 0.595 |
| GCACAAUUCAAGCAAUCGGUC [Fam1B.1 aminoacylation ribozyme variant] | 1.81 | 1.79 | 2.1 | 1.94 | 3.04 | 3.3 |
| AUUCACCUAGGUCAACGGCUG [Fam2.2 aminoacylation ribozyme variant] | 1.07 | 1.17 | 1.12 | 1.09 | 0.492 | 0.872 |
| AUUACCCUGGUUUUCGAGUGA [Fam2.1 aminoacylation ribozyme variant] | 8.29 | 9.42 | 3.74 | 4.43 | 45.7 | 10.9 |
| AUCACCCGGGUCAUCGAGUGA [Fam2.1 aminoacylation ribozyme variant] | 7.5 | 7.28 | 3.65 | 4.32 | 51.8 | 8.12 |
| AAGUUUGCUACUAGUCGCACG [Fam3.1 aminoacylation ribozyme variant] | 1.02 | 1.1 | 0.967 | 0.846 | 1.28 | 1.73 |
| CUCCUUCAAAAAAUCGGUCUG [Fam1A.1 aminoacylation ribozyme variant] | 1.09 | 1.3 | 1.16 | 1.01 | 11.8 | 9.62 |
| AUUACUCUGAUCAUCGAGUGA [Fam2.1 aminoacylation ribozyme variant] | 5.85 | 5.35 | 2.93 | 2.95 | 19.3 | 6.7 |
| AAGUUUGCUUAUAGUUGCAAG [Fam3.1 aminoacylation ribozyme variant] | 0.919 | 0.894 | 0.877 | 0.987 | 0.81 | 0.591 |
| CUACUUGAAAAAAUCGGUCUG [Fam1A.1 aminoacylation ribozyme variant] | 0.781 | 0.801 | 0.862 | 0.822 | 0.472 | 0.84 |
| CUACUUCAAACAUUCGCUCUG [Fam1A.1 aminoacylation ribozyme variant] | 1.12 | 1.24 | 1.07 | 0.985 | 3.16 | 0.81 |
| AUUCACCUUGGUAAUCGGGUG [Fam2.2 aminoacylation ribozyme variant] | 3.95 | 5.19 | 2.23 | 2.35 | 24.4 | 3.98 |
| GAGUGUGCUAAUAGUCGCAAG [Fam3.1 aminoacylation ribozyme variant] | 1.51 | 1.36 | 1.77 | 1.57 | 9.21 | 3.11 |
| AUUCAGCUAGGUCUUCGGGUG [Fam2.2 aminoacylation ribozyme variant] | 5.01 | 5.34 | 4.2 | 4.24 | 36.2 | 4.96 |
| ACUCACCUAGCUCAUCGGGUG [Fam2.2 aminoacylation ribozyme variant] | 2.47 | 2.17 | 2.02 | 1.92 | 0.904 | 2.44 |
| AUUACCUUGGUCAUCGAAUGA [Fam2.1 aminoacylation ribozyme variant] | 0.77 | 1.1 | 1.14 | 0.945 | 0.902 | 0.837 |
| AAGUUUGCUAAUAGUCGCGAU [Fam3.1 aminoacylation ribozyme variant] | 1.33 | 1.47 | 1.46 | 1.37 | 1.53 | 1.86 |
| AUUCACCUAGGCCAUCGGGGG [Fam2.2 aminoacylation ribozyme variant] | 2.64 | 4.55 | 2.5 | 2.82 | 10.8 | 2.28 |
| CCACACUUCAAUCACUCGGUC [Fam1B.1 aminoacylation ribozyme variant] | 0.763 | 0.773 | 0.936 | 0.984 | 0.947 | 0.753 |
